Data reported in the DeepSol protein solubility set.

assay: soluble on expression in E. coli; label from the status in PepcDB or PDB records

| Sequence | soluble on expression in E. coli |
| --- | --- |
| MGSDKIHHHHHHMMNIPPFINTIIGQQPYPLLFAIISGSHLYGFPSPDSDYDLRGVHILPVEEVVGLETGNETIEVSEIREALEIDLVTHDVKKFFLMLLKKNGYVLEQLYSPLVLTTSPEAEELKFIAKGCITRNHYYHYIGFAATQWKLFENERTYRLKPLLYVYRVLLTGIYLMQTGIVEANLMKLNEVFNLPYIHDLITQKIAGKEKSVVSNVNVDFHQIEYERLRHKLQEVYESSRLPEVPSANAALHNLLVRLRTNVKLRK | not soluble |
| MGSDKIHHHHHHMMQIYLVGGAVRDQLLGLPIKDRDWLVVGSTAEELLSQGYQQVGKDFPVFLNPNTREEYALARTERKSGTGYTGFICDFNPDITLEQDLMRRDLTINAIAQDMAGQYHDPYNGIADLKKGILRHISPAFAEDPLRVLRVARFAARYHQLGFKIAPNTLALMKKIANNGELRQLSPERVWQETEKALHEQDPQVYFAILQKIDALKVLCPEISVFNSDSIQYRSDMTDFVHAMPILKQTTLLTEKTDYHKSAVRFAALCHDVGKALSTANIPPYSHDNKITSIAYLRNVCQRFKVPNYVQELAELTCQYHSHIHHALALHTKTILTLFNKLDVWRKPKRFEELMLVCLADSLTQTEMNYTDYPQYKFLLCLYQAALAVDVQQIISEGFQHKAIRVELDRRREIAIQIKKQQFIEQNLT | not soluble |
| MGSDKIHHHHHHMMSGHNKWANIKHRKMAQDAKKSKIFTKLIREIIVAAREGGGNIETNPRLRAAVERARAENMPKENIERAIKRGTGELEGVDYQEVIYEGYAPGGVAVYIRALTDNKNRTAQELRHLFNKYGGSLAESGSVSWIFERKGVIEISRDKVKDLEELMMIAIDAGAEDIKDAEDPIQIITAPENLSEVKSKLEEAGYEVEAKVTFIPKNTVKVTGKDAEKVLEFLNALEDMDDVQEVYSNFEMDDKEMEEILSRLEG | not soluble |
| MGSDKIHHHHHHMMSWADKYRPKNIDDVILNSEIRKQITEWIESWKEGIPKKRSLILYGSQGTGKTTTAYAIAGTFGVPVVEMNASDQRNRDSMRGTALMASLYGDLFVESAKRPSKVILIDEADNMFERGGDTGGIYELSKIIKNSANPIVITMNDIFEFRKKNYASDVISASLTIEMKQYGRKLDKNYNEFRRNIKARLIFILKNEGYTLPDQVVDRIIDRNMPDIRSMINDLEASAVSGTNISDQSSRDVPEIVYYMVDKAFKRNYDDTLRSIYGSDIDDSYYVSWIDENLPLKTVDLQDLVSAYEVISYADHILWAMERRRHYELMAFPMEIAGGVAYYIENMKHEYVKYQSPSYISQMSKTKEKRHAMMSLALKIGLLIHMGAQRTSEDLWFYSLLYQHNEKLRTFFEEKLNLTQGEENVLTRSE | not soluble |
| MGSDKIHHHHHHMMTQLSAPTLTKDPLTTQDRQIIATIVNQSDYSKNCKPEDVVTIWISEDDTTVWVKMIHGYARYHKQSFKRAVAEVKASLSAPVKCNHKEERELKQAAEKIGLLGDCDWLSLSVQYYPDKVIGHAGCYTSQKPQLLTPLAEWDFTLPKWNMPAAICPDCGGHGCGNCGYRGTRAEDLCKPVDGYRLTYVGRTDLQTAHNVYLDGEFLGILFKVRNADELWENDPKTYYWRCGDGVRYWSVKEAVEVLSRTTAPIELPQVCRELVAA | not soluble |
| MGSDKIHHHHHHMNADDIRAMIQPAQVHRDVYISDAVYRLEMRHLFTNAWIFVGHDSQTPNKGDYITTQVGDQPVIMVRHTDGEVKVLYNRCPHKGTKIAIDRAGNTGKFFRCPYHAWSFKTDGCLLAIPLKKGYEGTGLSESQNGKGMQAVGAVYNYRGFVFARLAEDGIGFDEFFGGSLSSIDNMVDRAPEGRVEISGPPLRYMHKCNWKMLVENQTDTCHPMVAHESSAGTAVKIYEQMGNPEPRPPAMQIIAPFMSPYEFFEDMGIRTWPNGHGHTGVNMSIHSNYDAIPGYFEAMIESHGEERAKAILDESRHNTVYFPNVMVKAPLTQLRNFIPLGADRTLAESYVYRLVGAPEQLTAMSAMYNRMINAPTSIVGHDDLEMYERAQEGLHAEGMQWVDIRRLHTGPENFETEAVENGTTERQMRNQFHAWAKFMTMSMEDAPGVAAQ | not soluble |
| MGSDKIHHHHHHMNANQFLKAVSQLQGWRECAFLLALAERSFPNYALFADAVGLKTGGKMRQLLDLAWDMLQKDVADAAIPQLLSKLETLCPNVDEYDAYGVYPAFDFCQLLEQALLNRLNPNKHRATEASQLATRTVMDFVEMSEGEGMDENELVRVFEHHPLLKDDKLFQRDTVMALKKQRTPKEAFLAELRAGAANDGVSNLGISLEG | not soluble |
| MGSDKIHHHHHHMNDIIKLIKSIIIEMDMEAYIVGGYIRDKLMNPKNSASDLDIAFQGDFEKILDELRKRKIKVSSIKKDSSVYRITVNGYCADISKIKGKNINEDLSKRDFTVNAIALDIKNNKIVDPFDGRVHIKRRILQVIDEKSFEDDAVRILRGIRFYIKYGMHFNGYTEEYIRKHSKNIMKFPRDRVLDEIIHIIHEDENGVFFEVMDQYMILKNILPYMEELKTVGKCKHHLVDAFTHMNTAYHVFKDMKKKYLKVKNINIEEFNKDIGVYNELDYLAFAIFTHDIGKYVSYKKEGQKISFKGHDEKGLEIIEKVCDELKFPNDGKKIVCSVVKNHMYPLMLFKLKEDERKQEEYEFFNKFDQYVPHIIVASFCDVYATTIYIDENNEKDRFTSFISELVVKYREFINLKKIKYIDGNDLIDMGFRGNDIGNILNELNKMLYIEGSKTKKEQQDFVLRMKDKL | not soluble |
| MGSDKIHHHHHHMNDIKMIRIGITGGTGFLGNRLVELLSKTNTPITCLTRESSNIETIEDKVKVIKGDLSNLESLEDFVKGQDVIVHLAAQVSRTTKKEYYQSNVLGTENLCKAINQYNPECRLINCSSIAAYRIKGWCKLQFTDYAKSKLSADRVVDSYMKTIKATTIIPGIIYGAGNNAFISAIIENLEKGKLFFAKGGEKFAPLSYIDDLCDLFIRAIYNEESVGNKYFGIKYSERGIHDFIRIIASKTYNKAPDAVLSKNKLMAKAVFWQFVYSFFKIKKAPTLSIRMVDIMSINYSLSEEQRTNNLGWEPSVDMEEGVDNALLSYNLKKDSTNRS | not soluble |
| MGSDKIHHHHHHMNDQKNAAQVGLGLRREMLSEFCESVPEAINFFEVAPENWMTLGGKFGRQFRELTEQHTFYCHGLSLSIGSPEPLDLAFVKNIKTFMDLHQIQIYSEHLSYCSGQGHLYDLMPIPFTDAAVKHVAARVKQVEDILERPLILENVSFYAAPGARMSELEFVNAVLQEADCKLLLDVNNIYVNSINHQYDADTFLQAMPTERIAYLHIAGHYKQAEDLLIDTHGAAINDPVWALLQRCYALHGVKPTLLERDFNVPTTAELLLELNQIHAYQAAAPSSHIQNSAHVVKRIA | not soluble |
| MGSDKIHHHHHHMNELTEFNARNDLDNELASTVSDILAKAIKEKGKASIAVSGGSTPKGFFSVLSQSDIDWSKVTITLADERWVPIDSEASNTRLVHENLLQNKAEKAKFFHLKQGDELTDETLEDLNVAASKILLPLDVLILGMGEDGHTASLFPCSDQITSGLDETNDAALLKVQPKTAPHQRISFTFASLMTSKNIFLHSCGEGKKTVLTQVLNGDDPFEMPIRAFLQHPSLNTQIFWAP | not soluble |
| MGSDKIHHHHHHMNESERKIVEEFQKETGINFKNEELLFRALCHSSYANEQNQAGRKDVESNEKLEFLGDAVLELFVCEILYKKYPEAEVGDLARVKSAAASEEVLAMVSRKMNLGKFLFLGKGEEKTGGRDRDSILADAFEALLAAIYLDQGYEKIKELFEQEFEFYIEKIMKGEMLFDYKTALQEIVQSEHKVPPEYILVRTEKNDGDRIFVVEVRVNGKTIATGKGRTKKEAEKEAARIAYEKLLKERS | soluble |
| MGSDKIHHHHHHMNETVSLETREVRFLSVFDFDGTLTYRDSFVPFLRFAFGNRVFVRRMLRMAGPSLAYLCRRIDRDDLKARLIATFLTDVPVHVLEERALAYQNRFWETLMRPHALTAVADQVSSGSTVTICSASPSLLLRPFAEKLGVHLIATELEVVDGVLTGRIVGRNCRRDEKVCRLERHYGPLTQYSLRAWGDSRGDTELLAAALERFWKPFR | not soluble |
| MGSDKIHHHHHHMNFFEIVNAHLSELSPNEQKLFDYVVTNMGQIKNQSIREVASATFVSTATFLRFVKKIGFSGFSEFTTVIKFTLINRQEAERTTPFVVQQKDYREEYLKNIGESIRVIQPDHLRQVVDRLAQHPDVFFFAKGVSKHAVAYIDYLYTMAGFKTHFPRDHDYRKQALTQVDNDALVFILTYKGSDGEMLDMMSQLVGRPVRPLLVSITEPDNNTIQNLSDINFYIFTDGVTVNGTDISSRISTISVMELILYQYVEDYGGRDFHFQRQLES | not soluble |
| MGSDKIHHHHHHMNFNELKTFVALVETKHFTKTADRLYISQPTVSLHLKHLEEHFGQSLIHRHTFNKTIEISEAGWIVYRHAKEILHQAIRLEQEIDELEGITRGTLRIAATHTIYEAMLEEMIHDFLLVYPDVSVDARVMNQEQVEQALLHYEIDLGMVEGLHRSHQIEAIPFATDRLRIIGHHHLVPEQATWIYREEGSAARLALETWLQTQAIVPKRIITVYSNRLIKQLIKNGTGISILSERLAGSLLESERFQTYDDSQIDPRMFQFITLKGETTRLSQKWINQHGGSD | not soluble |
| MGSDKIHHHHHHMNHLNDKVNEIKDNFYGLIGHAYLEKYITKPIVDEDKLRFLYTMLAEKLPKKDTKLFTLSALLVDAALEIHEAVSLHNIQTDPIKKNRQLNVLAGDYYSSLYYYLLADSRHLPIIQVFSHSIQEINEYKMKLYDGKNIDFDEVKNNVDKVDTFLLQNLAEHFQLTTWKKAISVFFHLKRLVHEREAWINGKATPLMKAIVTELFGSNRPVDELKKDDQLQVLELWEEKVEEGKDHLLEHVKALLPKFERFFVDHLNDLFGPDYIHEKVAEEG | not soluble |
| MGSDKIHHHHHHMNHNLTTLHPYPFAKMATLLADSTPAHSYDEIKLGIGEPKHAPPAFVLDVLRENLDKISHYPTTNGLFELRQTIAHWLEKRFFLNHVNPNTQVLPVMGTREAIFSIVQAVINHQTETISQTATLNQSPVVVMPNPFYQIYEGAAILAQATPYFIPCTADNGFKGDFRSVPKDVWMRTQLLFVCSPNNPTGSVMTMDDWEQLLRLSDQYGFIIASDECYSELYFDKAPIGLLQACAALGRHDFKNCLVFHSLSKRSNLPGLRSGFVAGDATILDSYLQYRTYQGCAMPIPHQLASIAAWEDEKHVAHNRALYQEKFALWMSELGALLDLRMPEAGFYFWIKAPEQFDGDDELFVKALYEHANIHALAGRYLSREVNGKNPGQGYVRIALVASVEESREAIRRIRQLLGA | not soluble |
| MGSDKIHHHHHHMNIAEIEVTHKVKEKEWKEFLSRSEYATVYHTPEWKKTLEESFGYKPYYLFVKDESDLIVGMLPLFYVKSKLTGNRLSSLPFSHISGPVGDKATKNFLISEAINLYKNLGASYLEIRDRVEDNRFLSKNMFSTYILELNPNIEEVWKQLHKGSVRRAIKKSEKSGVVVDTAKDIESLKEFYDLNCVGKRKIGVPCHPWKFFKNLFRFMNDYISLYVAKYQNNIIGGGIMIYYKDTVIYGYGAAHPHYLKLYPYNAFLWKSIKDACLSRYKYFDLGRAHYNVERGLMDFKRRWGTIEKKLYYSYYSKNKDLKILDMSGLKYRLGTKVIRKMPMPIYKKFSDRIFGSLG | not soluble |
| MGSDKIHHHHHHMNIDKLDYHSLIIFESISRHLNAGLVANELGMSISSVSRHLGILRDIFKDVLFIRRAQGFVLSDKAIQLLPYIKQLLHDYQVIKHNHIHFNPLTARGHFKIYAYNEFTYVINKVIHQYILPQAPNLTFEVRTLSSDCSRAIEHGEIDFAVVYERFKDHKIICEMFSPTEELFLIAKEGHAVFEDEFTLANLCQYDYFALDNYNDLPMPLLEQLGKTEGKAVNVLGATDNIAALSRHILDGRAISMSCNVFTREFYSLIKGIRTATLPSALTERLLKQITVGRTVGNYLIYSEINQSPTHHWLKQQLFNGIRDEWYLAMGR | not soluble |
